“Also recorded” adds a separate entry of the source.
Legend:
RAW 264.7 cells [1] = assay: Cell-to-cell protein transfer (flow cytometry); type: cell-based
Procedure: For this, RAW 264.7 cells were treated with 5 μM of FITC-labeled HM165S3B, HTS3B for 2 hour and washed with PBS two times. Thereafter, they were seeded on PANC-1 cell, incubated for 2 hours and treated with 20 ng/ml of IFN-γ for 15 minutes, followed by Western blotting in the same manner as in Example 8-1. And Cell-to-cell protein transfer was assessed by flow cytometry.
For this, RAW 264.7 cells were treated with 10 uM of FITC-labeled iCP-SOCS3 (HM165S3B) protein for 1 hour. Thereafter, these cells were co-cultured with PerCP-Cy5.5-CD 14-stained RAW 264.7 cells for 2 hours. Cell-to-cell protein transfer was assessed by flow cytometry, scoring for CD14/FITC double-positive cells.

HepG2 cells [2] = assay: Induction of apoptosis, Annexin V/7-AAD staining; type: cell-based, human; settings: for induction of apoptosis (Annexin V), HepG2, dose dependence: example 20-1
Procedure: AGS cells (gastric carcinoma cell line) (American Type Culture Collection; ATCC) were seeded in a 12-well plate at a density of 1×10^5 cells/well, and then treated with 10 uM of aMTD/SD-fused SOCS3 for 14 hours. Cancer cell death was analyzed by Annexin V analysis. Annexin V/7-Aminoactinomycin D (7-AAD) staining was performed using flow cytometry according to the manufacturer's guidelines (BD Pharmingen, San Diego, Calif., USA). Briefly, cells were washed three times with ice-cold PBS. The cells were then resuspended in 100 μl of binding buffer and incubated with 1 μl of 7-AAD and 1 μl of annexin V-PE for 30 min in the dark at 37° C. Flow cytometric analysis was immediately performed using a guava easyCyte™ 8 Instrument (Merck Millipore, Darmstadt, Germany).
Annexin V/7-Aminoactinomycin D (7-AAD) staining was performed using flow cytometry according to the manufacturer's guidelines (BD Pharmingen, San Diego, Calif., USA). Briefly, 1×10^6 cells were washed three times with ice-cold PBS. The cells were then resuspended in 100 μl of binding buffer and incubated with 1 μl of 7-AAD and 1 μl of […] for 30 min in the dark at 4° C. Flow cytometric analysis was immediately performed using a guava easyCyte™ 8 Instrument (Merck Millipore, Darmstadt, Germany). In this regard, Cisplatin® (IC50: 30 μM) was used as a reference drug.
The effect of inducing apoptosis of Chang liver cells was measured in the same manner as in Example 11-2, except that as target cell lines, normal Chang liver cells and hepatocellular carcinoma cell lines, Hep3B, HepG2, Huh7, and SK-HEP-1 were used, and as a reference drug, 5-FU® (IC50: 40 μM) was used.

HepG2 cells [3] = assay: Invasion assay (matrigel-coated Transwell); type: cell-based, human; settings: 24 hrs, compared with the control proteins
Procedure: The lower surface of Transwell inserts (Costar) was coated with 0.1% gelatin, the upper surface of Transwell inserts was coated with matrigel (40 μg per well; BD Pharmingen, San Diego, Calif., USA), and the membranes were allowed to dry for 1 hr at room temperature. The Transwell inserts were assembled into a 24-well plate, and the lower chamber was filled with growth media containing 10% FBS and FGF2 (40 ng/ml). Cells (5×10^5) were added to each upper chamber, and the plate was incubated at 37° C. in a 5% CO2 incubator for 24 hrs. Migrated cells were stained with 0.6% hematoxylin and 0.5% eosin and counted.

RAW 264.7 cells [4] = assay: Mechanism of aMTD-mediated uptake (EDTA, proteinase K, taxol, antimycin, temperature; flow cytometry); type: cell-based; settings: for protein uptake after proteinase K pretreatment: 5 ug/ml proteinase K 10 minutes; for protein uptake after taxol pretreatment: 20 uM taxol 30 minutes
Procedure: The mechanism of basic CPP (TAT and PolyR)-mediated intracellular delivery was also investigated in the same manner as in Example 7-1 and Example 14-2.
(1) RAW 264.7 cells were pretreated with 100 mM EDTA for 3 hours, and then treated with 10 uM of iCP-SOCS3 (HM165S3B) protein for 1 hour, followed by flow cytometry in the same manner as in Example 7-1 (FIG. 51A).
(2) RAW 264.7 cells were pretreated with 5 ug/ml of proteinase K for 10 minutes, and then treated with 10 uM of iCP-SOCS3 (HM165S3B) protein for 1 hour, followed by flow cytometry (FIG. 51B).
(3) RAW 264.7 cells were pretreated with 20 uM taxol for 30 minutes, and then treated with 10 uM of iCP-SOCS3 (HM165S3B) protein for 1 hour, followed by flow cytometry (FIG. 52A).
(4) RAW 264.7 cells were pretreated with 1 mM ATP and 10 uM antimycin singly or in combination for 2 hours, and then treated with 10 uM of iCP-SOCS3 (HM165S3B) protein for 1 hour, followed by flow cytometry (FIG. 52B).
(5) RAW 264.7 cells were left at 4° C. and 37° C. for 1 hour, respectively, and then treated with 10 uM of iCP-SOCS3 (HM165S3B) protein for 1 hour, followed by flow cytometry (FIG. 53).

NIH3T3 cells = assay: Intracellular delivery and localization of FITC-labeled SOCS3 recombinant proteins (confocal microscopy); type: cell-based, mouse; settings: 10 μM FITC-labeled SOCS3 protein, 1 hour, 37° C.
Procedure: To examine cell-permeability of SOCS3 recombinant protein, SOCS3 recombinant proteins were conjugated to 5/6-fluorescein isothiocyanate (FITC). RAW 264.7 (KCLB, Seoul, South Korea) (FIG. 20) or NIH3T3 cells (KCLB, Seoul, South Korea) (FIG. 21) were treated with 10 μM FITC-labeled SOCS3 recombinant proteins and cultivated for 1 hr at 37° C.
After cultivation, the cells were washed three times with ice-cold PBS (Phosphate-buffered saline, Hyclone, USA) and treated with proteinase K (10 μg/mL, SIGMA, USA) to remove surface-bound proteins, and internalized proteins were measured by flow cytometry (FlowJo cytometric analysis software, Guava, Millipore, Darmstadt, Germany). Untreated cells (gray) and equimolar concentration of unconjugated FITC (FITC only, green)-treated cells were served as control (FIG. 20). Each of NIH3T3 cells was incubated for 1 hour at 37° C. with 10 μM FITC-labeled SOCS3 protein. For nuclear staining, a mixture of […] Mounting Medium (Vector laboratories, Burlingame, Calif.) and DAPI (4′,6-diamidino-2-phenylindole) was added to NIH3T3 cells, and visualized using a confocal laser microscope (LSM700, Zeiss, Germany) (FIG. 21).

HepG2 tumor = assay: Anti-tumor activity in cell-derived xenograft model; settings: for inhibition on the tumor size: observation 3 weeks
Procedure: Female Balb/c^nu/nu mice (5-week-old, Doo-Yeol Biotech Co. Ltd. Korea) were subcutaneously implanted with Hep3B2.1-7 tumor block (1 mm^3) into the left back side of the mouse. […] Tumor size was monitored by measuring the longest (length) and shortest dimensions (width) once a day with a dial caliper, and tumor volume was calculated as width2×length×0.5.
Then, tumor volumes were examined. […] Then, tumor volumes were examined.

[5] = then 10 uM protein 1 hour, listed as aMTD165/SD-fused SOCS3 recombinant proteins

B1: HM165S3B: His-tagged recombinant protein of aMTD165, human SOCS3 and solubilization domain B; prototype improved cell-permeable SOCS3 (protein)
chain: MGSSHHHHHHSSGLVPRGSHMALAVPVALAIVPVTHSKFPAAGMETSRPLDTSLRLKTFSSKSEYQLVVNAVRKLQESGFYWSAVTGGEANLLLSAEPAGTFLIRDSSDQRHFFTLSVKTQSGTKNLRIQCEGGSFSLQSDPRSTQPVPRFDCVLKLVHHYMETPPPGAPSFPSPPTEPSSEVPEQPSAQPLPGSPPRRAYYIYSGGEKIPLVLSRPLSSNVATLQHLCRKTVNGHLDSYEKVTQLPGPIREFLDQYDAPLGSMAEQSDKDVKYYTLEEIQKHKDSKSTWVILHHKVYDLTKFLEEHPGGEEVLGEQAGGDATENFEDVGHSTDARELSKTYIIGELHPDDRSKIAKPSETL
modifications: Amino acid sequence of HM165S3B
RAW 264.7 cells [1]; 10 uM FITC-labeled protein 1 hour, co-culture with CD14-stained RAW 264.7 cells 2 hours
  cell-to-cell protein transfer (CD14/FITC double-positive cells): Efficient cell-to-cell transfer
RAW 264.7 cells [1]; RAW 264.7 treated with 5 μM FITC-labeled protein 2 hour, seeded on PANC-1 cell 2 hours
  cell-to-cell protein transfer: efficient cell-to-cell transfer
HepG2 cells [2]
  induction of apoptosis (Annexin V), HepG2, dose dependence: dose-dependently efficient inducer of apoptosis
HepG2 cells [2]; listed as iCP-SOCS3
  induction of apoptosis (Annexin V), HepG2, dose dependence: upon treatment of 10 uM or more of iCP-SOCS3, there was no difference in induction of apoptosis
HepG2 cells [2]; example 20-2
  induction of apoptosis (Annexin V), HepG2: considerably efficient inducer of apoptosis
HepG2 cells [3]
  invasion, HepG2: remarkable decrease in invasion
RAW 264.7 cells [4]; then 10 uM protein 1 hour
  protein uptake after proteinase K pretreatment: essentially unaffected
  protein uptake after taxol pretreatment: essentially unaffected
RAW 264.7 cells [4]; [5]
  protein uptake after proteinase K pretreatment: independent to cell surface receptor
  protein uptake after taxol pretreatment: not due to endocytosis
RAW 264.7 cells [4]; 1 mM ATP and 10 uM antimycin 2 hours, then 10 uM protein 1 hour
  protein uptake after antimycin (ATP depletion): essentially unaffected
RAW 264.7 cells [4]; 100 mM EDTA 3 hours, then 10 uM protein 1 hour
  protein uptake after EDTA pretreatment: blocked
RAW 264.7 cells [4]; 4° C. vs 37° C., 10 uM protein 1 hour
  protein uptake at low temperature: blocked
NIH3T3 cells
  intracellular delivery and localization: localized to various extents in cytoplasm; also recorded: displayed more uniform cellular distribution
HepG2 tumor; IV 600 μg/head for 21 days, 3 weeks after termination
  tumor growth inhibition at day 42: 67%
HepG2 tumor; IV 25 mg/kg every day for 3 weeks
  inhibition on the tumor size: 60%
HepG2 tumor; IV 50 mg/kg every day for 3 weeks
  inhibition on the tumor size: 76%
HepG2 tumor; IV 50 mg/kg three times a week for 3 weeks
  inhibition on the tumor size: 66%

Reference: US10385103B2, “Cell-permeable (ICP)-SOCS3 recombinant protein and uses thereof” (CELLIVERY THERAPEUTICS, INC., priority 2014, dated 2019)
